B1: I81Y (protein)
chain: MASSRTGAGAGGRVVVFPFPFQGHFNPVMRLARALHARGLAITVFHSGALDPADYPADYRFVPVTVEADPKLLASEDIAAYVTTLNASCDAPFRARLSALLAAEGRDSVRCVFTDVSWNAVLTASSDLGVPALGMMTASAASLRDYMAYRTLIDKGYLPVKEERKEDPVPELPPYLVKDLLRVDTSDLEEFAELLARTVTAARRASGLIFNTFPLIETDTLAEIHKALSVPVFAVAPLNKLVPTATASLHGVVQADRGCLQWLDTQQPGSVLYVSFGSMAAMDPHEFVELAWGLADSKRPFVWVVRPNLIRGFESGALPDGVEDEVRGRGIVVAWAPQEEVLAHPAVGGFLTHNGWNSTVEAISEGVPMVCCPRHGDQFGNMRYVCDVWKVGTELVGEQLERGQVKAAIDRLFGTKEGEEIKERMKEFKIAAAKGIGIGVDVDETASPRTDLTDLVDLIKSF
modifications: Zea mays
B2: S117I: bx9 SEQ ID NO:1 mutant (protein)
chain: MASSRTGAGAGGRVVVFPFPFQGHFNPVMRLARALHARGLAITVFHSGALDPADYPADYRFVPVTVEADPKLLASEDIAAIVTTLNASCDAPFRARLSALLAAEGRDSVRCVFTDVIWNAVLTASSDLGVPALGMMTASAASLRDYMAYRTLIDKGYLPVKEERKEDPVPELPPYLVKDLLRVDTSDLEEFAELLARTVTAARRASGLIFNTFPLIETDTLAEIHKALSVPVFAVAPLNKLVPTATASLHGVVQADRGCLQWLDTQQPGSVLYVSFGSMAAMDPHEFVELAWGLADSKRPFVWVVRPNLIRGFESGALPDGVEDEVRGRGIVVAWAPQEEVLAHPAVGGFLTHNGWNSTVEAISEGVPMVCCPRHGDQFGNMRYVCDVWKVGTELVGEQLERGQVKAAIDRLFGTKEGEEIKERMKEFKIAAAKGIGIGVDVDETASPRTDLTDLVDLIKSF
modifications: Zea mays
B3: S117V: bx9 SEQ ID NO:1 mutant (protein)
chain: MASSRTGAGAGGRVVVFPFPFQGHFNPVMRLARALHARGLAITVFHSGALDPADYPADYRFVPVTVEADPKLLASEDIAAIVTTLNASCDAPFRARLSALLAAEGRDSVRCVFTDVVWNAVLTASSDLGVPALGMMTASAASLRDYMAYRTLIDKGYLPVKEERKEDPVPELPPYLVKDLLRVDTSDLEEFAELLARTVTAARRASGLIFNTFPLIETDTLAEIHKALSVPVFAVAPLNKLVPTATASLHGVVQADRGCLQWLDTQQPGSVLYVSFGSMAAMDPHEFVELAWGLADSKRPFVWVVRPNLIRGFESGALPDGVEDEVRGRGIVVAWAPQEEVLAHPAVGGFLTHNGWNSTVEAISEGVPMVCCPRHGDQFGNMRYVCDVWKVGTELVGEQLERGQVKAAIDRLFGTKEGEEIKERMKEFKIAAAKGIGIGVDVDETASPRTDLTDLVDLIKSF
modifications: Zea mays
B4: I81L (protein)
chain: MASSRTGAGAGGRVVVFPFPFQGHFNPVMRLARALHARGLAITVFHSGALDPADYPADYRFVPVTVEADPKLLASEDIAALVTTLNASCDAPFRARLSALLAAEGRDSVRCVFTDVSWNAVLTASSDLGVPALGMMTASAASLRDYMAYRTLIDKGYLPVKEERKEDPVPELPPYLVKDLLRVDTSDLEEFAELLARTVTAARRASGLIFNTFPLIETDTLAEIHKALSVPVFAVAPLNKLVPTATASLHGVVQADRGCLQWLDTQQPGSVLYVSFGSMAAMDPHEFVELAWGLADSKRPFVWVVRPNLIRGFESGALPDGVEDEVRGRGIVVAWAPQEEVLAHPAVGGFLTHNGWNSTVEAISEGVPMVCCPRHGDQFGNMRYVCDVWKVGTELVGEQLERGQVKAAIDRLFGTKEGEEIKERMKEFKIAAAKGIGIGVDVDETASPRTDLTDLVDLIKSF
modifications: Zea mays

Assay: UDP luminescence plate assay of E. coli extracts, mutants of SEQ ID No: 1, 2 mM metribuzin
Type: biochemical, Zea mays
Conditions: for RATIO of the metribuzin signal to the DMSO signal: 2 mM metribuzin vs DMSO control, same mutant; for SIGNAL: metribuzin signal of mutant divided by the signal of w/t bx9 / luminescence signal observed with 2 mM metribuzin: 2 mM metribuzin; for SIGNAL: metribuzin signal of mutant divided by the signal of w/t bx9: relative to bx9 w/t; for luminescence signal in the DMSO control: mutants of SEQ ID No: 1, DMSO in place of metribuzin (background UDP-glucose hydrolysis); for luminescence signal observed with 2 mM metribuzin: mutants of SEQ ID No: 1 in E. coli extracts, UDP luminescence
Protocol: Optionally plate assays are stopped with brief heating to 95 C before returning to ice and addition of UDP-Glo detection reagent followed by incubation at lab temperature. […] In addition a UDP standard curve is run alongside each set of plate tests.
Assays were carried out on extracts of E. coli BL21 DE3 expressing the various C-terminally his-tagged library variants of SEQ ID NO:1 at the amino acid positions listed in Table 11 as described in Example 2 except, in this case, with 2 mM metribuzin in place of herbicide V.
Thus the ratio of the metribuzin to DMSO signal as well as the increase in signal relative to the w/t bx9 is used to help distinguish those mutations most likely to offer the highest activity to metribuzin. A follow up assay monitored by, for example, LC MS is one method to distinguish these cases more quantitatively.

| Molecule | RATIO of the metribuzin signal to the DMSO signal | SIGNAL: metribuzin signal of mutant divided by the signal of w/t bx9 | luminescence signal in the DMSO control | luminescence signal observed with 2 mM metribuzin |
| --- | --- | --- | --- | --- |
| B1 | 1.12 | 0.90 | 2.25E+05 | 2.53E+05 |
| B2 |  | 1.99 | 5.14E+05 | 5.56E+05 |
| B3 |  | 1.18 | 3.38E+05 | 3.30E+05 |
| B4 | 1.11 | 0.67 | 1.68E+05 | 1.87E+05 |

Source: patent publication US20200270588A1, “GLUCOSYL TRANSFERASE POLYPEPTIDES AND METHODS OF USE” (Syngenta Participations AG, priority 2017, published 2020)
